In patent US20140212423A1 (AbbVie / Abbott, published 2014):

How the values were obtained:
[1] = target: T1, mouse Transferrin Receptor overexpressed on Hek 293 cells (mouse, UniProt Q62351 1-763); experiment: MSD-ECL assay, column headed IC50 (values match the cell-based mTfR binding EC50 of Table 7)
T1 construct: whole, on cells; also called Hek293/mTfR; 293/mTFR

[2] = target: T1, mouse Transferrin Receptor …; experiment: cell-based MSD-ECL binding on Hek293 cells overexpressing mouse TfR
Procedure: (§1) Meso-scale Discovery (MSD) Electrochemiluminescesnce (ECL) assays to screen for antibodies or DVDs that bind a desired target antigen expressed on the cell surface were performed as follows: Hek 293 cells overexpressing mouse Transferin Receptor were added onto MSD 96-well plates (MSD Cat# L11 XB-3, lot#2290-EA) which were blocked using blocking buffer (30% FBS Serum (Hyclone) in PBS) at 37° C. for 1 hr. After incubating at RT for 30 min with mild agitation, plates were washed with DPBS 3 times and Abs/DVDs (10,000 ng/ml) were added. After incubating for 1 hr at RT, plates were washed 3 times with DPBS and 25 ul of Goat anti human Sulfo TAG (MSD Cat# R32AC-, Lot# W001162) at 1 μg/ml is added. Following a 1 h incubation at RT for 1 hr, plates are washed and MSD read buffer is added before reading on MSD SECTOR Imager 6000. EC50 values are obtained using Xlfit4 software package

[3] = target: T1, mouse Transferrin Receptor …; experiment: TfR binding EC50 column of Table 8 (cell-based assay; repeats Table 7)
Procedure: as §1

rmTfR (123-763) = target: T2, rmTfR (123-763) (mouse, UniProt Q62351 123-763); experiment: Biacore SPR, antibody captured via anti-human Fc, rmTfR (123-763) in solution
T2 construct: range 123-763; also called recombinant mouse transferrin receptor 123-763
T2 sequence (Q62351 123-763): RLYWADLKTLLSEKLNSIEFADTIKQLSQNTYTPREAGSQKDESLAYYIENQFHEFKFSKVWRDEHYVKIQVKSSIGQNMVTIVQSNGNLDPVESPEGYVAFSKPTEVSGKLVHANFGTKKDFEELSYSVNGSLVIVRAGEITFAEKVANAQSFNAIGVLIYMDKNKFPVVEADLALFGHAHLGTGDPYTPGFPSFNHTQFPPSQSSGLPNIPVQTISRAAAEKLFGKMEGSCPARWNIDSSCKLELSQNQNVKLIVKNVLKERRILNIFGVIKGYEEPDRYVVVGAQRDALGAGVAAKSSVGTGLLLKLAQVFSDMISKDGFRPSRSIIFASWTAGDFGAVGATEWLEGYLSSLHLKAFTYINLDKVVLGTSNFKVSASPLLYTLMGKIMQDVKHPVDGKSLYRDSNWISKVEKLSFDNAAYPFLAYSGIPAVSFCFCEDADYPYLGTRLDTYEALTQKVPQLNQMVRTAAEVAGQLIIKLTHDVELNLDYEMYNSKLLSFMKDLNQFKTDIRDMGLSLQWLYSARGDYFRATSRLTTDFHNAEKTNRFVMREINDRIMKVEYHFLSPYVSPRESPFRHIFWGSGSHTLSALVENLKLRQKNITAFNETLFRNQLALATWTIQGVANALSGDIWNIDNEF
Procedure: (§2) The BIACORE assay (Biacore, Inc, Piscataway, N.J.) was used to determine the affinity of antibodies or DVD-Ig™ with kinetic measurements of on-rate and off-rate constants. Binding of antibodies or DVD-Ig™ to a target antigen (for example, a purified recombinant target antigen) was determined by surface plasmon resonance-based measurements with a Biacore® 1000 or 3000 instrument (Biacore® AB, Uppsala, Sweden) using running HBS-EP (10 mM HEPES [pH 7.4], 150 mM NaCl, 3 mM EDTA, and 0.005% surfactant P20) at 25° C. All chemicals were obtained from Biacore® AB (Uppsala, Sweden) or otherwise from a different source as described in the text. For example, approximately 5000 RU of goat anti-human IgG, (Fcγ), fragment specific polyclonal antibody (Pierce Biotechnology Inc, Rockford, Ill.) diluted in 10 mM sodium acetate (pH 4.5) was directly immobilized across a CM5 research grade biosensor chip using a standard amine coupling kit according to manufacturer's instructions and procedures at 25 μg/ml. Unreacted moieties on the biosensor surface are blocked with ethanolamine. Modified carboxymethyl dextran surface in flowcell 2 and 4 is used as a reaction surface. Unmodified carboxymethyl dextran without goat anti-human IgG in flow cell 1 and 3 is used as the reference surface. For kinetic analysis, rate equations derived from the 1:1 Langmuir binding model were fitted simultaneously to association and dissociation phases of all eight injections (using global fit analysis) with the use of Biaevaluation 4.0.1 software. Purified antibodies or DVD-Ig™ were diluted in HEPES-buffered saline for capture across goat anti-human IgG specific reaction surfaces. Antibodies or DVD-Ig™ to be captured as a ligand (25 μg/ml) were injected over reaction matrices at a flow rate of 5 μl/min. The association and dissociation rate constants, kon (M⁻¹s⁻¹) and koff (s⁻¹) are determined under a continuous flow rate of 25 μl/min. Rate constants are derived by making kinetic binding measurements at different antigen concentrations ranging from 10-200 nM. The equilibrium dissociation constant (M) of the reaction between antibodies or DVD-Ig™s and the target antigen is then calculated from the kinetic rate constants by the following formula: KD=koff/kon. Binding is recorded as a function of time and kinetic rate constants are calculated.

[4] = target: T1, mouse Transferrin Receptor …; experiment: mTFR binding cell-based assay
Procedure: as §1

rmTfR (119-763) = target: T3, rmTfR (119-763) (mouse, UniProt Q62351 119-763); experiment: Biacore SPR, antibody captured via anti-human Fc, rmTfR (119-763) in solution
T3 construct: range 119-763; also called recombinant mouse transferrin receptor 119-763
T3 sequence (Q62351 119-763): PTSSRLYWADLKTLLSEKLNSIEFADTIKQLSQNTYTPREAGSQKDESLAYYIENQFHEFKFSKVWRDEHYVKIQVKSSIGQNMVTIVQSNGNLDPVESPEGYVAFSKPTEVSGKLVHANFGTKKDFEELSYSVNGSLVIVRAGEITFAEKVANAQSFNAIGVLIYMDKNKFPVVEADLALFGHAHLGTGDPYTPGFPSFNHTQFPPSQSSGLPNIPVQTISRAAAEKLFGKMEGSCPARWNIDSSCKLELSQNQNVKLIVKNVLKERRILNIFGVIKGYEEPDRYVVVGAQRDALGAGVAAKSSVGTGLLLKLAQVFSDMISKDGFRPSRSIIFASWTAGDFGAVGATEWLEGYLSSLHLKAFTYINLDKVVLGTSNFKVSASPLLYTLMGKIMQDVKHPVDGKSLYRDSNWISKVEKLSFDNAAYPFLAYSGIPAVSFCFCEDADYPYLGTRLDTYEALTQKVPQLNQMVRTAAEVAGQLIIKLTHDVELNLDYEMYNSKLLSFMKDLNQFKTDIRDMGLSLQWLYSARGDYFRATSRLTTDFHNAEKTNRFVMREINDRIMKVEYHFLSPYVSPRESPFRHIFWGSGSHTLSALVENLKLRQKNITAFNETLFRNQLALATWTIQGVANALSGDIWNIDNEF
Procedure: as §2, with “Antibodies or DVD-Ig™ to be captured as a ligand (25 μg/ml) were injected over reaction matrices at a flow rate of 5 μl/min.” left out, “Rate constants are derived by making kinetic binding measurements at different antigen concentrations ranging from 10-200 nM.” left out

T1 sequence (Q62351 whole entry): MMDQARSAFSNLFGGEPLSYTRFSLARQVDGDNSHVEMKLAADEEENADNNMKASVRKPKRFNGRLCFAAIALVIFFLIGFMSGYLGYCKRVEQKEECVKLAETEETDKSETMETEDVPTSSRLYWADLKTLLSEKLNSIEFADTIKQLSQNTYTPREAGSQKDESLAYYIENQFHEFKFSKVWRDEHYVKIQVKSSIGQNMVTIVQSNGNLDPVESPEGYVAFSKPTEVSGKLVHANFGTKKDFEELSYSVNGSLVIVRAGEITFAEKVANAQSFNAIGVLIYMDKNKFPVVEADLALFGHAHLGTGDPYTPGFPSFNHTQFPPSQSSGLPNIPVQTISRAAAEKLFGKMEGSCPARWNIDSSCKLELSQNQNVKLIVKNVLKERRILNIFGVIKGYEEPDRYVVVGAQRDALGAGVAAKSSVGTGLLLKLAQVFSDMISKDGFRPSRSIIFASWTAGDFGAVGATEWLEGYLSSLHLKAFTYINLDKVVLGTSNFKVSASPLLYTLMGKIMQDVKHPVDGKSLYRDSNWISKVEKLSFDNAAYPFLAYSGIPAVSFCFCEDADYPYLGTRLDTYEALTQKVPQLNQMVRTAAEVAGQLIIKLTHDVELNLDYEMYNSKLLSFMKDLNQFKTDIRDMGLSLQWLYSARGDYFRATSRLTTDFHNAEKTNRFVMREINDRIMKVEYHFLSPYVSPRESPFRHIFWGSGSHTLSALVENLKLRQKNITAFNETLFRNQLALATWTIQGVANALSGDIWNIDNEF

IC50 [1]	EC50 [2]	EC50 [3]	binding result (rmTfR (123-763))	EC50 [4]	Kd (rmTfR (119-763))	koff (rmTfR (119-763))	kon (rmTfR (119-763))	Binder
1.2 nM	1.2 nM							DVD2671 (bispecific antibody, DVD-Ig; also called AbetaLSTfR DVD2671) VH: EVQLLESGGGLVQPGGSLRLSCAASGFTFSNYGMSWVRQAPGKGLEWVASIRSGGGRTYYSDNVKGRFTISRDNSKNTLYLQMNSLRAEDTAVYYCVRYDHYSGSSDYWGQGTLVTVSSASTKGPSVFPLAPEVQLVESGGGLVQPGNSLTLSCVASGFTFSNYGMHWIRQAPKKGLEWIAMIYYDSSKMNYADTVKGRFTISRDNSKNTLYLEMNSLRSEDTAMYYCAVPTSHYVVDVWGQGVSVTVSS VL: DVVMTQSPLSLPVTPGEPASISCKSSQSLLDSDGKTYLNWLLQKPGQSPQRLIYLVSKLDSGVPDRFSGSGSGTDFTLKISRVEAEDVGVYYCWQGTHFPRTFGQGTKVEIKRTVAAPDIQMTQSPASLSASLEEIVTITCQASQDIGNWLAWYQQKPGKSPQLLIYGATSLADGVPSRFSGSRSGTQFSLKISRVQVEDIGIYYCLQAYNTPWTFGGGTKLELK
	13.6 nM	13.6 nM	no binding (tested: antigen 10-200 nM)	13.6 nM				AB405 (antibody, V domains shown, constant regions not assigned; also called TfR(AB405)) VH: QVQLVQSGAEVKKPGASVKVSCKASGFTFSNYGMHWIRQAPGQGLEWIAMIYYDSSKMNYADTVKGRFTITRDNSTNTLYMELSSLRSEDTAVYYCAVPTSHYVVDVWGQGTTVTVSS VL: EIVMTQSPATLSVSPGERATLSCQASQDIGNWLAWYQQKPGQSPRLLIYGATSLADGVPARFSGSRSGTEFTLTISSLQSEDFAVYYCLQAYNTPWTFGGGTKVEIKR
0.1 nM	0.1 nM							DVD2668 (bispecific antibody, DVD-Ig, outer AB221 (TfR), inner AB043 (APP/Abeta), HG-long/LK-short; dual variable regions only; constant regions not assigned; also called TfRLSAbeta DVD2668) VH: EVQLVESGGGLVQPGNSLTLSCVASGFTFSNYGMHWIRQAPKKGLEWIAMIYYDSSKMNYADTVKGRFTISRDNSKNTLYLEMNSLRSEDTAMYYCAVPTSHYVVDVWGQGVSVTVSSASTKGPSVFPLAPEVQLLESGGGLVQPGGSLRLSCAASGFTFSNYGMSWVRQAPGKGLEWVASIRSGGGRTYYSDNVKGRFTISRDNSKNTLYLQMNSLRAEDTAVYYCVRYDHYSGSSDYWGQGTLVTVSS VL: DIQMTQSPASLSASLEEIVTITCQASQDIGNWLAWYQQKPGKSPQLLIYGATSLADGVPSRFSGSRSGTQFSLKISRVQVEDIGIYYCLQAYNTPWTFGGGTKLELKRTVAAPDVVMTQSPLSLPVTPGEPASISCKSSQSLLDSDGKTYLNWLLQKPGQSPQRLIYLVSKLDSGVPDRFSGSGSGTDFTLKISRVEAEDVGVYYCWQGTHFPRTFGQGTKVEIKR
	0.1 nM	0.1 nM		0.12 nM	5 nM	0.000181 s⁻¹	39400 M⁻¹ s⁻¹	AB221 (antibody, V domains shown, the assays detect/capture with anti-human IgG reagents; constant regions not assigned; also called TfR(AB221); anti-mouse TfR(AB221) antibody) VH: EVQLVESGGGLVQPGNSLTLSCVASGFTFSNYGMHWIRQAPKKGLEWIAMIYYDSSKMNYADTVKGRFTISRDNSKNTLYLEMNSLRSEDTAMYYCAVPTSHYVVDVWGQGVSVTVSS VL: DIQMTQSPASLSASLEEIVTITCQASQDIGNWLAWYQQKPGKSPQLLIYGATSLADGVPSRFSGSRSGTQFSLKISRVQVEDIGIYYCLQAYNTPWTFGGGTKLELKR
